From the DeepSol protein solubility set

Test: soluble on expression in E. coli; label from the status in PepcDB or PDB records

Sequence	soluble on expression in E. coli
MRKDRVTQGVDRIMQAIADKEFELGQAIPGEAKLAEFLDVSRPTMREVVRTLADRGVLEVVHGRGTFVAPLDHWSDVRSRVDFISRTLSPGEVGFHLTEVRRMIEVGSCGHAAARAEDCDLDRMQTALDAYDAALEAHDVAGIAKSDVEFHNAIFEATKNPVVTALMIPLEGELAASRLRTSAVSEVAERAQEHHRRIYSAIKASDEEGAKNAMRAHMSQTFDDLQRFVGEY	not soluble
MSTSLVDRLWYGQGRPLALLTPLAWLYRAVSESRRRKAWHARNESLPVPVVVVGNITAGGTGKSPLTASLVQCMNQHGWKPVILSRGYGGKSSQYPLLVADGTPAGVCGDEPLMLARATGCPVVVDPDRCRGARWALENGLGDVLICDDGLQHYRLPRDIELAVFDARRGTGNGAIIPVGPLREPVERLNSVDFVVLNGAEFPEAGETIESFAGVDHPEIHAMELVPSALVNLNSGETLSPEQLKGKPVRAVAGIGNPGRFFETLRNLGAHVNEVPFPDHHHFRPEDLASGALEWLVMTAKDAVKCHGFAPDNAWVLTVQARLSEPFEQHFLERLRASSGQLQTDISEESNHGLEHHHHHH	not soluble
MGSDKIHHHHHHMQVLLVGGTGTLGRQIARRAIDAGHQVRCMVRKPRKGAFLQEWGCELTCGDLLDPETIDYSLDGIDAVIDAATSRPDDSASVYTTDWDGKLNLLRACEKAGVTRYVFLSLLAAEKHLNVPLMDIKFCTERLLADSSFDYTILQGVAFMQGLIGQIAIPVLENQTVWVSETPTAVAYMNTQDVARFAVAALERPETIRRSFPVVGPKAWTSEEIVQFCEKSSSKTAKVIRVSPFLIGLSQRVVSFFEQSVNMAERLAFAEVTGGGIALDAPMDDTYSCFGLDSSETTPLESYISEYYDTILKRLREMEADLDEESRKKLPF	not soluble
MQAGKPILYSYFRSSCSWRVRIALALKGIDYKTVPINLIKDGGQQFSKDFQALNPMKQVPTLKIDGITIHQSLAIIEYLEETRPTPRLLPQDPKKRASVRMISDLIAGGIQPLQNLSVLKQVGEEMQLTWAQNAITCGFNALEQILQSTAGIYCVGDEVTMADLCLVPQVANAERFKVDLTPYPTISSINKRLLVLEAFQVSHPCRQPDTPTELRA	soluble
MGSDKIHHHHHHMDHQIEDLLEHWLPLADDAWVLAVITHVQGSAYRKPGAMMLFHEFGQGAGILSGGCLEADLRRYAQNAMQTKQVMCVTYDASDESDASYRLGCGGIVDIMLIPLLKENHDLGLIDLVHAFRHGQSGYYQLPLVASGTDARQYQARFYSADAAPFPISDFAKSKIVKQESNDTLVIPLRPRFHIGIFGGGIDAKPIAAIAHSLGWQVTVIDGRTAYARAADFPHAHIIKQAVGELAANVIAQLDCAVVINHNLGLDAAVLKAIQPYSLDYVALLGPAHRRDKVLAMAGLSAQSFSGVFSAPAGLALGGELPSAIALSILAQCHGVLHGATLKQLDEIMG	not soluble
ADPVMLEIFNNRFMSVAEQMGYTLQNTAHSVNIKERLDFSCAIFDGKGNLIANAPHIPVHLGSMGECVKYLIRARSVEMTAGDVYLINSPYHGGTHLPDLTVVTPMSGNLGEILFYLASRGHHADVGGVTPGSMPPDSRTIEEEGVLSEGMKIVEQGRFLEEKLRLWLGSGKYPARNPDQNVADIRAQVAANEKGLQELHRMVEEFSLETVEAYMGHVQDNAEEAVRRVIDRLEDGEFTYPLDDGNAIKVKVKIDRENRNAKIDFSGTSSQLPSNFNAPASVCLAAVLYAFRTLVKSDIPLNAGCLRPLEIIIPEGSMLKPEPPASVVAGNVETSQYIVDAIFGALGSLAASQGTMNNFTFGNADFQYYETICGGSGAGPGFSGTDAVHTHMTNSRITDPEVLETRFPVLLEEFSIRQGSGGEGEFRGGNGVVRKFRFLKDMDAAILSSHRKFPPFGLKGGMPGKCGKNTLIRRDGSVIEAGGKAELKLKSEDVFVIETPGGGGYGRPENFRPEK	not soluble
MVEDILAPGLRVVFCGINPGLSSAGTGFPFAHPANRFWKVIYQAGFTDRQLKPQEAQHLLDYRCGVTKLVDRPTVQANEVSKQELHAGGRKLIEKIEDYQPQALAILGKQAYEQGFSQRGAQWGKQTLTIGSTQIWVLPNPSGLSRVSLEKLVEAYRELDQALVVRGR	soluble
MATAHYHGSCQCGSVSFEVDADLDHTVICNCSRCKRLGSTLAFAPREKFTLLSGEDKLSEYLFNKHKIHHFFCSTCGIESFAYADGPDGTPMVAVNANCLDGVDPRALKSQAFDGAAA	soluble
MQSVDVAIVGGGMVGLAVACGLQGSGLRVAVLEQRVQEPLAANAPPQLRVSAINAASEKLLTRLGVWQDILSRRASCYHGMEVWDKDSFGHISFDDQSMGYSHLGHIVENSVIHYALWNKAHQSSDITLLAPAELQQVAWGENETFLTLKDGSMLTARLVIGADGANSWLRNKADIPLTFWDYQHHALVATIRTEEPHDAVARQVFHGEGILAFLPLSDPHLCSIVWSLSPEEAQRMQQASEDEFNRALNIAFDNRLGLCKVESARQVFPLTGRYARQFASHRLALVGDAAHTIHPLAGQGVNLGFMDAAELIAELKRLHRQGKDIGQYIYLRRYERSRKHSAALMLAGMQGFRDLFSGTNPAKKLLRDIGLKLADTLPGVKPQLIRQAMGLNDLPEWLRLEHHHHHH	not soluble
QNTLAENQFNQRRTIETTLMGSIISAFRARGDAGAREILTEWKDSPVSSGVYVIQGDEKKDILNRYIDSYTIERARLFAAGHPHSNLVHIEYDRFGEEYLFFTKDWDKLQARRLPSPLLIPGLPLAPIWHE	not soluble
MSITINKLEIENVKRIKAVKIEPSATGLTIIGGNNNQGKTSVLDAIAWALGGNKYKPSQAMREGSQVPPTLKITMSNGLIVERKGKNASLKVIDPNGQKGGQQLLDSFVEELAINLPKFMDSTPKEKADVLLEIIGVGDQLAELELKEKEIYNQRHAIGVIADQKEKFAKEMTYYPDAPKQLVSISELIQQHQAILAKNGENAQKRQNVERIRYDYNQSILEVDRLRKLLADAEAKTNKLSEDLKIANTDAMDLHDESTAEIEANIADIDEVNRKVRANFDKDKAEEDAKQQREQYNILTNDIESIRQQKRDLLINADLPLEGLSVDDGKLLYLGQEWDNMSGSQQLIVATAIVRKLKPDCGFVLIDKLEQMDNITLEQFGKRLEQEGLQAIATRVSIGEECAIIIEDGYSVENKAHNFKTAEGGNFAETVAPTWKGEF	not soluble
MGSDKIHHHHHHMRVIDGGVTAPKGFKANGYKEGKFGVAIIISEKDAVGAGTFTTNKVVAHPVVLSRELIKNRDKFRAIVANSGNANCFTKDGMEDAKEMQRLVAELFNINEDEVLVASTGVIGRKMDMNIIKDRINKVYNLIKEGNSSINAAKAIMTTDTKPKEIAVEFEVNGKTVRVGGIAKGAGMIAPNMLHATMLCFITTDIEIDKESLTNILQKVVDKTFNNISVDGDTSTNDTVFVLANGLSGVNYEECGEEFENALLYVCRELAKMIVKDGEGATKFMEVVVKGAKTEEDAVKASKAIVNSLLVKTAVFGGDPNWGRIVAAVGYSGADFNPEVVDVILSNYKDEVYLVKDGIPLADEGTEELKKAEEIMKSDEIKIVVDLKMGEFENVCYGCDLSYEYVRINAEYTT	not soluble
GPGSMSALWAQVRQTVESEWDKTIVPAISAYIEVPNQSPQFDPEWATNGLQEKAFGILIDWMNAQNVQGLTYDYITADGRTPFLLVEIAGTEPTNNTVLMYGHMDKQPPLRPWAEGLDPHKAVVRDGKLYGRGGADDGYALFAAVTAISSLQRHGIPHGRVVITIEAGEESGSPDLDYYMERCKERIGKVDLMVCLDSGSMNYSQVWLTTSLRGVAIGELTVQTLTESMHSGVAGGVVPDTFRITRELLSRIEDCKTGEVTIPEAHCEIPPNAVKAAEAMKTVPFKEQFAMAAGVATVPGDNVELAIQNFWKPSLTVTGANLPDPQIAGNVIRTHTTVKLSMRLPPLVKAEAALQAMKRILEADPPYGAKVAFKGVGAGNGCAAPELKPWLQEVLHEGSTEAFGNTYACQGMGGAIPFIGMLIDMYPEAQFVVTGLLGPQSNAHGPNEFLHIPYAKGLTYSIARVVAAHLHNTPK	soluble
PDFTPQKFKEKTAEQLRVLQASFLNSSVLTDEELNRLRAQTKLTRREIDAWFTEKKKSKALKEEKMEIDESNAGSS	soluble
MDELTAFNQCLAWLTHTTALPEHLDGLVLCGNSLPATATAAGQLAQDYQLPLLIIAGGVGHATKYLRQNLNLPKSQASEAELMATLVRKTGYQGSIRLDKTSTNTGSNATHARALAPTDWRHVLLVQDPLLARRTTLTFSANWSNANFIRYAPATLQLNRLQPMQFTPNTIVAGWQPAYFTELLLGEFQRLVDTPTGYGPRGQGFIAHVDIPEEVLAAARYLQSQSLHRQRLEHHHHHH	soluble
ASLYEKLGGAAAVDLAVEKFYGKVLADERVNRFFVNTDMAKQKQHQKDFMTYAFGGTDRFPGRSMRAAHQDLVENAGLTDVHFDAIAENLVLTLQELNVSQDLIDEVVTIVGSVQHRNDVLNR	soluble
MSLTVSFVRIDDRMIHGQTVTRWAKEYPCDGLIAVNDAAAKNKVLIQAYKGASDKKTFVWSKEAFAAKSQKVSDSDSRYFLITKNPVDMKEILVDQGFVPGEVKEIIVGPANDRPGAVKLGNNQSITQEEADAIEAIEKAGYKVKFQLLPDVSIGYWSDFKGKFGEGHHHHHH	soluble
MSLGTLPPELQNTCVARGKLPLLLDLDNTLLHAQAASATGCDVRLQDWIDPYGEPELYRFELPCNRKTYYMKLRPHLRTFLKKLEPFYEMSVYTNATQEYADIVIAILDGNRQLFQDRIVARDSGFRGEASENKAVRRLYEGMDKRCIVAFDDRQNIWTDLPLTHVVKAQHYDFFDSHKTELNAYYPPLSNGIEGMTAPDVLGNRQNEDEGHHHHHH	not soluble
MKPYQRQFIEFALNKQVLKFGEFTLKSGRKSPYFFNAGLFNTGRDLALLGRFYAEALVDSGIEFDLLFGPAYKGIPIATTTAVALAEHHDKDLPYCFNRKEAKDHGEGGSLVGSALQGRVMLVDDVITAGTAIRESMEIIQAHGATLAGVLISLDRQERGRGEISAIQEVERDYGCKVISIITLKDLIAYLEEKPDMAEHLAAVRAYREEFGV	soluble
MQQSTLVRLKEKLTLKNPIMVVGLPGVGLVGKLVAEHLVDELAAERIMEVYSPHFPPQVLVNKDCTVRPVSNTIYLGKANETDVLFLVGDHQSTTAQGHYELCSLYLDIAEELKVPRIYTLGGYPTGKLTYEDTVLGVANSTELIEEIKQYGVEFRESEPSGGIVGASGLLVAFSGMRGIDAACLMGMTPGYLMDPKSAQSLLKVLCNIFGIEVNTDSLKKKAEEMENILEKLKEKEEQQNLPEVKPTEEDLRYIG	soluble
